Results from patent EP4725969A1 (Latticon (Suzhou) Biopharmaceuticals Co., Ltd., dated 2024).
Changes are numbered by the printed parent chain. In names and notes the source's numbering stands.

B1: Mu2117HK (Fc fusion)
scFv: EVKIEESGGGLVKPGGSLKLSCAASGFTYSSYGMSWVRQTPEKRLEWVASISGGGSYTKYPDSVKGRFTISRDNAKNHLYLQMSSLRSEDTALYYCARDYAGFFDVWGAGTTVTVSSGGGGSGGGGSGGGGSDVVLTQTPLSLPVSLGDQASISCRSSQSLVHSNGNTYLHWYLQKPGQSPKLLIYKVSNRFSGVPDRFSGSGSGTDFTLKISRVEAEDLGVYFCSQSTHVPYTFGGGTKLEIK
notes: scFv-hIgG1 Fc fusion of mAb2117 V regions, VH-(G4S)3-VL; also called chimeric single-chain antibody control; not shown: human IgG1 Fc
B2: Hu2117KH (Fc fusion)
scFv: DIQMTQSPSSLSASVGDRVTITCRSSQSLVHSNGNTYLHWYQQKPGKAPKLLIYKVSNRFSGVPSRFSGSGSGTDFTLTISSLQPEDFATYFCSQSTHVPYTFGQGTKVEIKGGGGSGGGGSGGGGSEVQLVESGGGLVQPGGSLRLSCAASGFTYSSYGMSWVRQAPGKGLEWVASISGGGSYTKYPDSVKGRFTISRDNSKNTLYLQMNSLRAEDTAVYYCARDYAGFFDVWGQGTLVTVSS
notes: not shown: human IgG1 Fc
B3: Hu2117HK-Mu20 (Fc fusion, name in Kabat numbering)
scFv: EVQLVESGGGLVQPGGSLRLSCAASGFTYSSYGMSWVRQAPGKGLEWVASISGGGSYTKYPDSVKGRFTISRDNSKNTLYLQMNSLRAEDTAVYYCARDYAGFFDVWGQGTLVTVSSGGGGSGGGGSGGGGSDIQMTQSPSSLSASVGDRVTITCRSSQSLVHSSGNTYLHWYQQKPGKAPKLLIYKVSNRFSGVPSRFSGSGSGTDFTLTISSLQPEDFATYFCSQSTHVPYTFGQGTKVEIK
notes: scFv-hIgG1 Fc; not shown: human IgG1 Fc
B4: Hu2117HK-Mu42 (Fc fusion)
scFv: B3 scFv with G54S, S165N
notes: as for B3
B5: Hu2117HK-Mu44 (Fc fusion, name in Kabat numbering)
scFv: B3 scFv with A101E, S165N
notes: as for B3
B6: Hu2117HK-Mu30 (Fc fusion, not shown: a dimerising Fc or GST; small tags and cut ends)
scFv: B3 scFv with H163D, S165N
notes: scFv-hIgG1 Fc
B7: Hu2117HK-Mu23 (Fc fusion)
scFv: B3 scFv with S165N, G166A
notes: as for B3
B8: Hu2117HK-Mu39 (Fc fusion)
scFv: B3 scFv with S31N, S165N
notes: as for B3
B9: Hu2117HK-Mu50 (Fc fusion)
scFv: B3 scFv with A101V, S165N
notes: as for B3
B10: Hu2117HK-Mu29 (Fc fusion)
scFv: B3 scFv with V162L, S165N
notes: as for B3
B11: Hu2117HK-Mu40 (Fc fusion)
scFv: B3 scFv with S31D, S165N
notes: as for B3
B12: Hu2117HK-Mu32 (Fc fusion)
scFv: B3 scFv with H163S, S165N
notes: as for B3
B13: Hu2117HK-Mu25 (Fc fusion)
scFv: B3 scFv with S165N, G166S
notes: as for B3
B14: Hu2117HK-Mu38 (Fc fusion)
scFv: B3 scFv with S30N, S31N, S165N
notes: as for B3
B15: Hu2117HK-Mu48 (Fc fusion)
scFv: B3 scFv with A101R, S165N
notes: as for B3
B16: Hu2117HK-Mu34 (Fc fusion)
scFv: B3 scFv with S165N, S226Q
notes: as for B3
B17: Hu2117HK-Mu35 (Fc fusion, name in Kabat numbering)
scFv: B3 scFv with S165N, S226L
notes: as for B3
B18: Hu2117HK-Mu41 (Fc fusion)
scFv: B3 scFv with S56N, T58A, S165N
notes: as for B3
B19: Hu2117HK-Mu24 (Fc fusion)
scFv: B3 scFv with S165N, G166I
notes: as for B3
B20: Hu2117HK-Mu46 (Fc fusion)
scFv: B3 scFv with A101N, S165N
notes: as for B3
B21: Hu2117HK-Mu28 (Fc fusion)
scFv: B3 scFv with S165N, G166T
notes: as for B3
B22: Hu2117HK-Mu49 (Fc fusion)
scFv: B3 scFv with A101S, S165N
notes: as for B3
B23: Hu2117HK-Mu22 (Fc fusion, name in Kabat numbering)
scFv: B3 scFv with S165V
notes: as for B3
B24: Hu2117HK-Mu36 (Fc fusion, name in Kabat numbering)
scFv: B3 scFv with S165N, S226M
notes: as for B3
B25: Hu2117HK-Mu43 (Fc fusion, name in Kabat numbering)
scFv: B3 scFv with A101D, S165N
notes: as for B3
B26: Hu2117HK-Mu21 (Fc fusion, name in Kabat numbering)
scFv: B3 scFv with S165T
notes: as for B3
B27: Hu2117HK-Mu27 (Fc fusion)
scFv: B3 scFv with S165N, G166R
notes: as for B3
B28: Hu2117HK-Mu45 (Fc fusion)
scFv: B3 scFv with A101I, S165N
notes: as for B3
B29: Hu2117HK-Mu47 (Fc fusion, name in Kabat numbering)
scFv: B3 scFv with A101Q, S165N
notes: as for B3
B30: Hu2126-H2K1-L71-H72b-Mu10 (antibody, IgG1, V domains shown)
VH: QVQLVQSGSELKKPGASVKVSCKASGYTFTDYSMHWVRQAPGQGLEWMGWINTGTGEPTYADDFKGRFTISRDTSKSTAYLQISSLKAEDTAVYYCVRVGRYDYAMDYWGQGTTVTVSS
VL: DIQMTQSPSSLSASVGDRVTITCRASQDVYTAVAWYQQKPGKAPKLLINAASSRPTGVPSRFSGSGSGTDFTLTISSLQPEDFATYYCQQYYSTPPTFGGGTKVEIK
notes: IgG1/Cκ; also called 7172b-Mu10
B31: Hu2126-H2K1-L71-H72b-Mu18 (antibody, IgG1, V domains shown)
VH: B30 VH
VL: B30 VL with A50W
notes: IgG1/Cκ; also called 7172b-Mu18
B32: Hu2126-H2K1-L71-H72b-Mu17 (antibody, IgG1, V domains shown)
VH: B30 VH
VL: B30 VL with A50S
notes: IgG1/Cκ; also called 7172b-Mu17
B33: Hu2126-H2K1-L71-H72b-Mu16 (antibody, IgG1, V domains shown)
VH: B30 VH
VL: B30 VL with A50R
notes: IgG1/Cκ; also called 7172b-Mu16
B34: Hu2126-H2K1-L71-H72b-Mu15 (antibody, IgG1, V domains shown)
VH: B30 VH
VL: B30 VL with A50Q
notes: IgG1/Cκ; also called 7172b-Mu15
B35: Hu2126-H2K1-L71-H72b-Mu11 (antibody, IgG1, V domains shown)
VH: B30 VH
VL: B30 VL with A50D
notes: IgG1/Cκ; also called 7172b-Mu11
B36: Hu2126-H2K1-L71-H72b-Mu14 (antibody, IgG1, V domains shown)
VH: B30 VH
VL: B30 VL with A50L
notes: IgG1/Cκ; also called 7172b-Mu14; Hu2126-7172b-Mu14
B37: Hu2126-H2K1-L71-H72b-Mu19 (antibody, IgG1, V domains shown)
VH: B30 VH
VL: B30 VL with A50Y
notes: IgG1/Cκ; also called 7172b-Mu19
B38: Hu2126-H2K1-L71-H72b-Mu12 (antibody, IgG1, V domains shown)
VH: B30 VH
VL: B30 VL with A50E
notes: IgG1/Cκ; also called 7172b-Mu12
B39: Hu2126-H2K1-L71-H72b-Mu13 (antibody, IgG1, V domains shown)
VH: B30 VH
VL: B30 VL with A50K
notes: IgG1/Cκ; also called 7172b-Mu13

The binders below were run against T1, recombinant human HER2 extracellular domain protein (human, UniProt P04626 23-652) (assay: BLI (ForteBio)).
T1 construct: range 23-652; Range is printed for the immunogen/panning protein; also called ErbB2; recombinant HER2 protein

Row | Kd | koff | kon | Binder
1 | 76 nM | 0.00523 s⁻¹ | 68800 M⁻¹ s⁻¹ | B1
2 | 147 nM | 0.00381 s⁻¹ | 25900 M⁻¹ s⁻¹ | B2

What follows are binders tested against T1, recombinant human HER2 extracellular … (assay: BLI, Protein A capture).

Row | Kd | koff | kon | Binder
3 | 13.3 nM | 0.000616 s⁻¹ | 46500 M⁻¹ s⁻¹ | B3
4 | 33.5 nM | 0.00178 s⁻¹ | 53000 M⁻¹ s⁻¹ | B4
5 | 42.5 nM | 0.0034 s⁻¹ | 80000 M⁻¹ s⁻¹ | B5
6 | 8.27 nM | 0.000301 s⁻¹ | 36400 M⁻¹ s⁻¹ | B6
7 | 6.67 nM | 0.000542 s⁻¹ | 81200 M⁻¹ s⁻¹ | B7
8 | 12.3 nM | 0.0012 s⁻¹ | 97700 M⁻¹ s⁻¹ | B8
9 | 16 nM | 0.0016 s⁻¹ | 100000 M⁻¹ s⁻¹ | B9
10 | 7.62 nM | 0.000668 s⁻¹ | 87700 M⁻¹ s⁻¹ | B10
11 | 11.9 nM | 0.000867 s⁻¹ | 72700 M⁻¹ s⁻¹ | B11
12 | 6.09 nM | 0.000366 s⁻¹ | 60100 M⁻¹ s⁻¹ | B12
13 | 6.73 nM | 0.00056 s⁻¹ | 83100 M⁻¹ s⁻¹ | B13
14 | 12.1 nM | 0.00121 s⁻¹ | 100000 M⁻¹ s⁻¹ | B14
15 | 12.1 nM | 0.00118 s⁻¹ | 97900 M⁻¹ s⁻¹ | B15
16 | 12.6 nM | 0.00117 s⁻¹ | 93500 M⁻¹ s⁻¹ | B16
17 | 59.8 nM | 0.0037 s⁻¹ | 61900 M⁻¹ s⁻¹ | B17
18 | 9.66 nM | 0.000603 s⁻¹ | 62400 M⁻¹ s⁻¹ | B18
19 | 6.65 nM | 0.000423 s⁻¹ | 63700 M⁻¹ s⁻¹ | B19
20 | 10.3 nM | 0.000794 s⁻¹ | 77400 M⁻¹ s⁻¹ | B20
21 | 7.15 nM | 0.000592 s⁻¹ | 82800 M⁻¹ s⁻¹ | B21
22 | 11.8 nM | 0.000761 s⁻¹ | 64500 M⁻¹ s⁻¹ | B22
23 | 13.4 nM | 0.00059 s⁻¹ | 43900 M⁻¹ s⁻¹ | B23
24 | 31.4 nM | 0.00198 s⁻¹ | 63200 M⁻¹ s⁻¹ | B24
25 | 56.7 nM | 0.00406 s⁻¹ | 71700 M⁻¹ s⁻¹ | B25
26 | 12 nM | 0.00056 s⁻¹ | 46800 M⁻¹ s⁻¹ | B26
27 | 7.38 nM | 0.000592 s⁻¹ | 80200 M⁻¹ s⁻¹ | B27
28 | 12.8 nM | 0.00126 s⁻¹ | 98000 M⁻¹ s⁻¹ | B28
29 | 15.3 nM | 0.000828 s⁻¹ | 54300 M⁻¹ s⁻¹ | B29

Target: T1, recombinant human HER2 extracellular …
Assay: BLI, Protein A capture
Remark: another data set of the same source

Row | Kd | koff | kon | Binder
30 | 3.38 nM | 0.000356 s⁻¹ | 105000 M⁻¹ s⁻¹ | B30
31 | 7.96 nM |  | 124000 M⁻¹ s⁻¹ | B31
32 | 2.8 nM | 0.000276 s⁻¹ | 98500 M⁻¹ s⁻¹ | B32
33 | 5.77 nM | 0.000578 s⁻¹ | 100000 M⁻¹ s⁻¹ | B33
34 | 4.49 nM |  | 106000 M⁻¹ s⁻¹ | B34
35 | 5.35 nM | 0.000482 s⁻¹ | 90100 M⁻¹ s⁻¹ | B35
36 | 0.825 nM | 8.31e-05 s⁻¹ | 101000 M⁻¹ s⁻¹ | B36
37 | 2.9 nM | 0.000314 s⁻¹ | 108000 M⁻¹ s⁻¹ | B37
38 | 6.74 nM |  | 78300 M⁻¹ s⁻¹ | B38
39 | 7.23 nM | 0.000707 s⁻¹ | 97800 M⁻¹ s⁻¹ | B39
